We go through one substance from article PMC8677749.

In this series the target is HBV core protein (Cp) dimer (Hepatitis B virus (strain NC_003977.1, subtype ayw?)) (UniProt P03146). Description: NCP assembly, SEC-MALLS. Conditions: 20 mM HEPES pH 7.5, 250 mM NaCl, 5 mM DTT, up to 0.15 M GuHCl, ~20 C; 1 nM RNA, Cp dimer titrated to 1.2 uM.
Sequence of HBV core protein (Cp) dimer (Hepatitis B virus (strain NC_003977.1, subtype ayw?)) (P03146 whole entry): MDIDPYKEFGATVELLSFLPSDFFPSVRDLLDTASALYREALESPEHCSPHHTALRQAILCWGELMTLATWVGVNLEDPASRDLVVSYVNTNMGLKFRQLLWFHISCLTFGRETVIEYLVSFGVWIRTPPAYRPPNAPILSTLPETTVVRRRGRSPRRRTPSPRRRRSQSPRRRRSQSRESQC

HBV JQ707375.1 gRNA (pgRNA) wild type registered a binding signal (% RNA yield after RNase A) of 81.
